Measurements taken from patent US20140099313A1 (published 2014).

B1: 13C5.5 (antibody, human IgG1, V domains shown)
VH: EVTLRESGPGLVKPTQTLTLTCTLYGFSLSTSDMGVDWIRQPPGKGLEWLAHIWWDDVKRYNPALKSRLTISKDTSKNQVVLKLTSVDPVDTATYYCARTVSSGYIYYAMDYWGQGTLVTVSS
VL: DIQMTQSPSSLSASVGDRVTISCRASQDIRNYLNWYQQKPGKAPKLLIFYTSKLHSGVPSRFSGSGSGTDYTLTISSLQPEDIATYYCQQGNTLPLTFGGGTKVEIK
notes: Humanized; also called humanized 13C5
B2: 1B6 (antibody, V domains shown)
VH: QVQLKESGPGLVAPSQSLSITCTVSGFSLTGYGVNWVRQPPGKGLEWLGMIWGDERIDYNSALKSRLSITKDNSKSQVFLKMNSLQTDDTGRYFCARDGYFPYAMDYWGQGTSVTVSS
VL: NIVLTQSPASLAVSLGQRATISCRASETVDSYGKSYLHWYQQKPGQPPKLLIYLASNLESGVPARFSGSGSRTDFTLIIDPVEADDAATYYCQQNNEGPRTFGGGTKLEIKR
notes: Murine monoclonal, IgG1κ

Assays:
human IL-13 wild type = target: T1, human IL-13 wild type (human, UniProt P35225 35-146); assay: competition: human IL-13 to human IL-13Rα2, cell surface-based and ELISA-based RBA
T1 construct: also called h IL-13; hIL-13 wt

[1] = target: T2, human IL-13 variant (R130Q of SEQ ID NO 1) (human, UniProt P35225 35-146); assay: SPR (Biacore), captured mAb
T2 construct: Recombinant purified protein (Peprotech for immunisation); also called h IL-13v; hIL-13v
Experimental: The BIACORE assay (Biacore, Inc, Piscataway, N.J.) determines the affinity of antibodies with kinetic measurements of on-, off-rate constants. […] All chemicals were obtained from Biacore® AB (Uppsala, Sweden) or otherwise from a different source as described in the text. Approximately 5000 RU of goat anti-mouse IgG, (Fcγ), fragment specific polyclonal antibody (Pierce Biotechnology Inc, Rockford, Ill.) diluted in 10 mM sodium acetate (pH 4.5) was directly immobilized across a CM5 research grade biosensor chip using a standard amine coupling kit according to manufacturer's instructions and procedures at 25 μg/ml. […] Unmodified carboxymethyl dextran without goat anti-mouse IgG in flow cell 1 and 3 was used as the reference surface. For kinetic analysis, rate equations derived from the 1:1 Langmuir binding model were fitted simultaneously to association and dissociation phases of all eight injections (using global fit analysis) with the use of Biaevaluation 4.0.1 software. […] The association and dissociation rate constants, kₒₙ (unit M⁻¹s⁻¹) and koff (unit s⁻¹) were determined under a continuous flow rate of 25 μl/min Rate constants were derived by making kinetic binding measurements at ten different antigen concentrations ranging from 10-200 nM. […] Binding is recorded as a function of time and kinetic rate constants are calculated.

T1 sequence (P35225 other isoform, or with tags, fused parts or gaps limits assumed): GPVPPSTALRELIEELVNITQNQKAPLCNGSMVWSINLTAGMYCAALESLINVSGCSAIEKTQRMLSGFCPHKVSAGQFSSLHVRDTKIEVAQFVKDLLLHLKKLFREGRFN
T2 sequence (P35225 35-146 limits assumed, stated change not applied): as the sequence (P35225 other isoform, or with tags, fused parts or gaps limits assumed) above, with R110Q counted along it

Row | Binder | IC50 (human IL-13 wild type) [nM] | kon [1] [M⁻¹ s⁻¹]
1 | B1 | 1 to 3 | –
2 | B2 | – | 106000
